{"source": "paper PMC3695626", "about": "(Cell, 2013)", "proteins": {"B1": {"name": "GroES (natural protein, E. coli)", "chain": "MNIRPLHDRVIVKRKEVETKSAGGIVLTGSAAAKSTRGEVLAVGNGRILENGEVKPLDVKVGDIVIFNDGYGVKSEKIDNEEVLIMSESDILAIVEA"}}, "target": "the molecule itself", "assay": "cryo-EM structure", "data": [{"protein": "B1", "values": [{"measurement": "stoichiometry N", "value": 7}]}]}
